Test: yeast display, Sf9 membrane polyspecificity reagent, FACS + sequencing; frameworks hold sequencing errors
Outline: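 After 36–48 hours of galactose induction, yeast (Saccharomyces cerevisiae BJ5465) displaying a synthetic nanobody library were stained at 4 °C for 1 hour with 10% biotinylated, detergent-solubilized Sf9 membrane reagent. Streptavidin microbeads enriched the stained cells before FACS sorting into low and high (top ~1%) gates on anti-HA and streptavidin fluorescence. Each clone's polyreactivity label reflects its gate of origin.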

Question: For “QVQLEESGGGLVQAGGSLRLSCAASGNTFYLYAMGWYRQAPGKERELVASITGGTRTNYADSVKGRFTISRDNAKNTVYLQMNSLKPEDTAVYYCAKTYPRTVGKYLSRGGYYYWGQGTQVTVSS”, which “polyreactivity (PSR sort gate)” value is on record?
Answer: high polyreactivity

Question: Which “polyreactivity (PSR sort gate)” value does the source give for “QVQLEESGGGLVQAGGSLRLSCAASGPIFVGYAMGWSRQAPGKEREFLAAISRDGDNTFYADSVKGRFTISRDYAKNTVYLQMYSLKPEDTAVYYCAVDYWVWYGCAYAYDYYWGQGTQVSVSS” here?
Answer: low polyreactivity

Question: For “QVQLEESGGGLVQAGGSLRLSCAASGRIFDDNAMGWYRQAPGKERELVAAISSGDSTKYADSVKGRFTISRDNAKNTVYLQMNSLKPEDTAVYYCAAERNHGLVGSESVGRNDYWGQGTQVTVSS”, which “polyreactivity (PSR sort gate)” value is on record?
Answer: low polyreactivity

Question: For “QVQLEESGGGLVQAGGSLRLSCAASGRIFGYYAMGWYRKAPGKERELVAAIRRSGASTYYADSVKGRFTISRDNAENTVYLQMYSLKPVDTAVYYCSQAGYSPVYGYWGQGTQVTVSS”, which “polyreactivity (PSR sort gate)” value is on record?
Answer: high polyreactivity

Question: With “QVQLEESGGGLVQAGGSLRLSCAASGRIFGYYAMGWYRQAPGKERELVATITFGGGSTYYADSVKGRFTISRDNAKNTVYLQMNSLKPEDTAVYYCAADSGYLGIYGDEYSWGQGTQVTVSS” as the sequence, how does the “polyreactivity (PSR sort gate)” value read?
Answer: low polyreactivity

Question: Which “polyreactivity (PSR sort gate)” value does the source give for “QVQLEESGGGLVQAGGSLRLSCAASGRIFIRNAMGWYRQAPGKERELVAAISYSGGSTYYADSVKGRFTISRDNAKNTVYLQMNSLKPEDTAVYYCAAGSIRGTSFYYWGQGTQVTVSS” here?
Answer: high polyreactivity

Question: For “QVQLEESGGGLVQAGGSLRLSCAASGRIFQYYVRGWYRQAPGKERELVAAITRRGTNTYYADSVKGRFTISRDNAKNTVYLQMHSLNPEETAVYYCAATYYWSGYPVKTTSDYWGQGTQITVSS”, which “polyreactivity (PSR sort gate)” value is on record?
Answer: high polyreactivity

Question: With “QVQLEESGGGLVQAGGSLRLSCAASGRIFYAYGIGWYRQAPVKERELVAAISSGDSTNYADSVKGRFTISRDNAKNTVYFQMNSLKPEDTAVYYCAKDGSPLQLTDPTHDYEYWGQGTQVTVSS” as the sequence, how does the “polyreactivity (PSR sort gate)” value read?
Answer: low polyreactivity

Question: With “QVQLEESGGGLVQAGGSLRLSCAASGRIFYRNAMGWYRQAPGKERELVAAISSSAGSTYYADSVKGRFTISRDHAKNTVYLQMNSLKPEDTAVYYCAAGSGTFVTRYRYDYWGQGTQVTVSS” as the sequence, how does the “polyreactivity (PSR sort gate)” value read?
Answer: high polyreactivity

Question: With “QVQLEESGGGLVQAGGSLRLSCAASGRIFYWYAMGWYRQAPGKERELVATISSAGTTYYADSVKGRFTISRDNAKNTVYLQMNSLKPEDTAVYYCAVPRVGLHGIGSDYWGQGTQVTVSS” as the sequence, how does the “polyreactivity (PSR sort gate)” value read?
Answer: high polyreactivity

Question: For “QVQLEESGGGLVQAGGSLRLSCAASGRILRGYVMGWYRQAPGKERELVATITGRGGSTYYADSVKGRFTISRDNAKNTVYLQMNSLKPEDTAVYYCNKDGYPYFGRSEYWGQGTQVTVSS”, which “polyreactivity (PSR sort gate)” value is on record?
Answer: low polyreactivity

Question: Which “polyreactivity (PSR sort gate)” value does the source give for “QVQLEESGGGLVQAGGSLRLSCAASGRILYGYAKGSYRQAPGKERELVASITWSGGSTYADSVKGRFTFSRDNAKNTVYLQMNSLKTEDTSVYYCSTRRGQKWQWLTYGYWGQGTQVTVSS” here?
Answer: low polyreactivity

Question: With “QVQLEESGGGLVQAGGSLRLSCAASGRSFNHNAMGWYRQAPGKERELVAAINQSGSSTYYADSVKGRFTISRDNAKNTVYLQMNSLKREDTAVYYCAAVCNGVDYEYWGQGTQVTVSS” as the sequence, how does the “polyreactivity (PSR sort gate)” value read?
Answer: low polyreactivity

Question: For “QVQLEESGGGLVQAGGSLRLSCAASGRTFGWNVMGWYRQAPGKERELVAAISGGGTSTYYADSVKGRFTISRDNAKNTVYLQMNSLNPEDTAVYYCNAYYPGSYYPRSGRYDYWGQGTQVTVSS”, which “polyreactivity (PSR sort gate)” value is on record?
Answer: high polyreactivity

Question: With “QVQLEESGGGLVQAGGSLRLSCAASGRTFKINAMGWYRQAPGKERELVAAIRRRGGSTYYADSVKGRFTISRDNAKNTVYLQMNSLKPEDTAVYYCAKTSWPYRVPSDSVAYDYWGQGTQVTVSS” as the sequence, how does the “polyreactivity (PSR sort gate)” value read?
Answer: low polyreactivity

Question: With “QVQLEESGGGLVQAGGSLRLSCAASGRTFRFYAMGWYRQAPGKERELVAAISESGGNTYYADSVKGRFTISRDNAKNTVYLQMNSLKPEDTAVYYCAARGRWKYNYWGQGTQVTVSS” as the sequence, how does the “polyreactivity (PSR sort gate)” value read?
Answer: high polyreactivity

Question: With “QVQLEESGGGLVQAGGSLRLSCAASGRTFSANTMGLYRKATGKERELVAAISKSGGSTYYADSVKGRLTISRDTAKYTVYLQMNSLNPEDTAVYYCAARTSGYWYSYGSWGQGTQVTVSS” as the sequence, how does the “polyreactivity (PSR sort gate)” value read?
Answer: high polyreactivity

Question: With “QVQLEESGGGLVQAGGSLRLSCAASGRTFSVNPMRWYRQAPGKERELVAAISWSTGSTYYADSVKGRFTISRDNAKNTVYLQMNSLKPEDTAVYYCAKLYEYRRSRYRTYGYWGQGTQVTVSS” as the sequence, how does the “polyreactivity (PSR sort gate)” value read?
Answer: high polyreactivity

Question: Which “polyreactivity (PSR sort gate)” value does the source give for “QVQLEESGGGLVQAGGSLRLSCAASGRTFYIYAMGWYRQAAGKERELVAAITWSGGTTYYADSVKGRFTISRDNAKNTVYLQMNSLKPEDTAVYDCNAGATYVKRRRGRKYDYWGQGTQVTVSS” here?
Answer: low polyreactivity

Question: Which “polyreactivity (PSR sort gate)” value does the source give for “QVQLEESGGGLVQAGGSLRLSCAASGRTLKVYAMGWYRTAPGKERELVAAINNGGSTNYADSVKGRFTISRDNAKNTVFLQMNSLKPEDTAVYYFNAVYYARFRKYTYYYWGQGTQVTVSS” here?
Answer: high polyreactivity

Question: Which “polyreactivity (PSR sort gate)” value does the source give for “QVQLEESGGGLVQAGGSLRLSCAASGRTSRVYAMGWYRQAPGKERELVAAITWRGGNTYYADSVKGRFTISRDNAKNTVYLQMNSLKPEDTAVYYCARDNGSPYHYYYWGQGTQVTVSS” here?
Answer: high polyreactivity

Question: For “QVQLEESGGGLVQAGGSLRLSCAASGSIFDYYAMGWYRQAPGTERELVATITSGVSTYYADSVKGRFTISRDNAKNTVYLQMNSLKPEETAVYYCARDYAKSQDVYKYDYWGQGTQVTVSS”, which “polyreactivity (PSR sort gate)” value is on record?
Answer: low polyreactivity

Question: For “QVQLEESGGGLVQAGGSLRLSCAASGSIFEGNGMGWYRPAPGKERELVAAITFRSGSTYYADSVKGRFTISRDNAKNTVYLQMNSLKPEDTAVYYCAADEYYKVSAYDFWGQGTQVTVSS”, which “polyreactivity (PSR sort gate)” value is on record?
Answer: low polyreactivity

Question: For “QVQLEESGGGLVQAGGSLRLSCAASGSIFFEYAMGWYRQAAGKERELVASINRGGGSTYYADSVKGRYTISRDNAKKNVYLQMNSLKPEDTAVYYCAAQWKYRQSYLDYYWGQGTQVTVSS”, which “polyreactivity (PSR sort gate)” value is on record?
Answer: low polyreactivity

Question: Which “polyreactivity (PSR sort gate)” value does the source give for “QVQLEESGGGLVQAGGSLRLSCAASGSIFLGNAMGWYRQAPGKERDLVAAISGGDSTNYADAVKGRFTISRDNAKNTGYLEMNCLKPEDTAVYYCNAVRTLYIWWPGYYYCGQGTQVTVSS” here?
Answer: low polyreactivity

Question: Which “polyreactivity (PSR sort gate)” value does the source give for “QVQLEESGGGLVQAGGSLRLSCAASGSIFSPNAMGWYRQAPGKERELVAAISSNGVSTYYADSVKGRFTISRDNAKNTVYLQMNSLKPEDTAVYYCAAVSIGPGEYDYWGQGTQVTVSS” here?
Answer: low polyreactivity

Question: With “QVQLEESGGGLVQAGGSLRLSCAASGSIFTNAMGWYRQAPGKERELVAAISSSGGSTYYADSVKGRFTISRDNAKNTVYLQMNSLKPEDTAVYYCAADHYGGRDYWGQGTQVTVSS” as the sequence, how does the “polyreactivity (PSR sort gate)” value read?
Answer: low polyreactivity

Question: Which “polyreactivity (PSR sort gate)” value does the source give for “QVQLEESGGGLVQAGGSLRLSCAASGSIFVYNAMGWYRQAPGKERELVAAISQRGGSTYYADSVKGRFTISRDNDKNTVYLQMNSLKPEDTAVYYCAAGPGDSGDDYWGQGTQVTVAS” here?
Answer: low polyreactivity

Question: Which “polyreactivity (PSR sort gate)” value does the source give for “QVQLEESGGGLVQAGGSLRLSCAASGSIFVYYAMGWYRQAPGKERELVAAISSSGTSTYYADSVKGRFTISRDNAKNTVYLQMNSLKPEDTAVYYCATTRRYAYRGGHNYWGQGTQVTVSS” here?
Answer: high polyreactivity

Question: With “QVQLEESGGGLVQAGGSLRLSCAASGSIFYTYAMGWYRQAPGTERELVAAISRSGGSTYYADSVKGRFTISRDNAKNTVYLQMNSLKPEDTSVYYCAARPPYRVGIVPLGRREYYWGQGTQVTVSS” as the sequence, how does the “polyreactivity (PSR sort gate)” value read?
Answer: high polyreactivity

Question: For “QVQLEESGGGLVQAGGSLRLSCAASGSILPKYDMGWSRQAPGKERELVAAITRTGGRTYYADSVKGRFTISRDYAKNTVYLQMNSLKPEDTAVYFCAVRGFFWSTRSYRIRSEYDYWGQGTQVTVSS”, which “polyreactivity (PSR sort gate)” value is on record?
Answer: low polyreactivity

Question: Which “polyreactivity (PSR sort gate)” value does the source give for “QVQLEESGGGLVQAGGSLRLSCAASGSTFDVYAMGWYRQAPGKERELVAAISRSGGSTYYADSVKGRFTISRDTAKTTVYLQMNSLQPEDTAVYYCNARLARWGSYEYNYWGQGTQVTVSS” here?
Answer: low polyreactivity

Question: With “QVQLEESGGGLVQAGGSLRLSCAASGSTFESYAMGWYRQAPGKERELVAAISWRVGSTYYADSVKGRFTISRDNAKNTFYLQMNILKPEDTAVYYCASKGWYSHYGGYDYWGQGTQVTVSS” as the sequence, how does the “polyreactivity (PSR sort gate)” value read?
Answer: low polyreactivity

Question: Which “polyreactivity (PSR sort gate)” value does the source give for “QVQLEESGGGLVQAGGSLRLSCAASGSTFHINAMGWYRQAPGKEREFVADINWSGGSTYYADSVKVSFTISRDNAKNTVYLQMNSLKPADTAVYYFAADVGVFTYSPYDAGEHDYWGQGTLVTVSS” here?
Answer: low polyreactivity

Question: For “QVQLEESGGGLVQAGGSLRLSCAASGSTFIVNAMGWYRQAPGKERELVATISGGDSTDYADSVKGRFTISRDNAKNTVYLQMKSLKPEDTAVYYCNAEVHQYYFTPYDYWGQGTQVTFSS”, which “polyreactivity (PSR sort gate)” value is on record?
Answer: low polyreactivity

Question: Which “polyreactivity (PSR sort gate)” value does the source give for “QVQLEESGGGLVQAGGSLRLSCAASGSTFTFYAMGRYRQAPGKERELVAAINGRGGSTYYADSVKGRFTISRDNAKNTVYLQMNSLKPEDTAVYYCATRLYYSVRYNMGYWGQGTQVTVSS” here?
Answer: high polyreactivity

Question: With “QVQLEESGGGLVQAGGSLRLSCAASGSTFYDYAMGWYRQAPGKERELVAAINGNGDSTYYADSVKGRFTISRDNAKNTVYLQMNSLKPEDTAVYYCAAYLGWGYDYWGQGTLVTVSS” as the sequence, how does the “polyreactivity (PSR sort gate)” value read?
Answer: low polyreactivity

Question: With “QVQLEESGGGLVQAGGSLRLSCAASGSTFYGYGMGWYRQAPGKERELVAAITGSGDTTYYADSVKGRFTISRDNAKNTVYLQMNSLKTEDTAVYYCNARWHAEYDYWGQGTQVTVSS” as the sequence, how does the “polyreactivity (PSR sort gate)” value read?
Answer: low polyreactivity

Question: Which “polyreactivity (PSR sort gate)” value does the source give for “QVQLEESGGGLVQAGGSLRLSCAASGSTFYKYAMGWSRQAPGKERELVASITWSGTSTYYADSVKGRFTISRDNAKNTVYLQMNSLKPEDTAVYYCNAGLEYYYWGYTWEFDYWGQGTQVTVSS” here?
Answer: low polyreactivity

Question: With “QVQLEESGGGLVQAGGSLRLSCAASGSTFYVYAMGWYIQAPGKERELVAAITDSGGSTYADSVKGRFTISRDNAKNTVYLQMNSLKPEDTAVYADSTYTWYYYYWGQGTQVTVSS” as the sequence, how does the “polyreactivity (PSR sort gate)” value read?
Answer: low polyreactivity

Question: With “QVQLEESGGGLVQAGGSLRLSCAASGSTFYYNAIGWYRQAPGKERELVAGITSGTGTKYADSVKGRFTISRDNAKNRVYLQMNSLKPEDTAVYYCAKDGTRYGSAPFGYWGQGTQVTVSS” as the sequence, how does the “polyreactivity (PSR sort gate)” value read?
Answer: low polyreactivity

Question: Which “polyreactivity (PSR sort gate)” value does the source give for “QVQLEESGGGLVQAGGSLRLSCAASGSTFYYYALGWYRQAPGKERELVATINKIVGITYYADSVKGRFTISRDNAKNTVYLQRNSLKPEDTAVYYCAVQDTSYDVQYSYGYWGQGTQVNVSS” here?
Answer: low polyreactivity

Question: For “QVQLEESGGGLVQAGGSLRLSCAASGTTFGINCYGMYRQAPGKERELVAGISVSGGSTYYADSVNGRFTISRDNAYNTVYLQMNSLKPEDTAVYYCAAKWFNRDFDYWGQGTQVTVSS”, which “polyreactivity (PSR sort gate)” value is on record?
Answer: low polyreactivity

Reference: the nanobody polyreactivity screen of Harvey et al. (2022)
